According to publication PMC9746415 (Human Vaccines & Immunotherapeutics, 2022):

Assay type: physicochemical
Conditions: pH 7.4

## In-house rituximab
  SEC-HPLC % mAb Monomer: 99.2%
